Experimental data taken from US20210023094A1 (PSMA DEVELOPMENT, published 2021).

Assays:
[1] = biological target: T1, prostate-specific membrane antigen (PSMA), on cells (3T3-PSMA, C4-2, LNCaP) (Homo sapiens (Human), UniProt Q04609 1-750); assay: cell-based or functional assay
[2] = biological target: T1, prostate-specific membrane antigen …; assay: cell-based or functional assay; remark: listed apart in the source

T1 sequence (Q04609 whole entry): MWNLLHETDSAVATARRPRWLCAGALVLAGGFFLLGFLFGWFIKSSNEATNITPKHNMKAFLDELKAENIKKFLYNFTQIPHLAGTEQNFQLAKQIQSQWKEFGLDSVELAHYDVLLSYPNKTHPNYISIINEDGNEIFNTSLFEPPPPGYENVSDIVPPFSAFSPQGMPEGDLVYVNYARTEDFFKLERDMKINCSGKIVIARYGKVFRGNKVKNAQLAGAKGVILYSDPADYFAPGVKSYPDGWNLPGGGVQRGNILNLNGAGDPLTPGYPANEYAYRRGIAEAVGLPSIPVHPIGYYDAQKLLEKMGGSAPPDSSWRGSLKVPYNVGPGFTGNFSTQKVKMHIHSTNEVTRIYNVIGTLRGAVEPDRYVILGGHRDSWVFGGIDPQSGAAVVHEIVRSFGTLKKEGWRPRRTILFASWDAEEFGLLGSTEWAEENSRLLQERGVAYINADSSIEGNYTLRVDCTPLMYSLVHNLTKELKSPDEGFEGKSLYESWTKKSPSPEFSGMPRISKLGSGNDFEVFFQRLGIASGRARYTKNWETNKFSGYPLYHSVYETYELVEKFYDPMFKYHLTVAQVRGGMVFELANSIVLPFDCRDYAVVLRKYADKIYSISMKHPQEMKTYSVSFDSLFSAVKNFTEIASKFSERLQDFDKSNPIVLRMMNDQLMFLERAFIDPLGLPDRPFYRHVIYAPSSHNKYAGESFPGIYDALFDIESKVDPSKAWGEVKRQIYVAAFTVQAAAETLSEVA

Binder	in vitro cytotoxicity IC50 on 3T3-PSMA cells (Alamar Blue, 4 days) [1]	in vitro cytotoxicity IC50 on C4-2 cells (Alamar Blue, 4 days) [1]	in vitro cytotoxicity IC50 on LNCaP cells (Alamar Blue, 4 days) [1]	in vitro potency IC50 on C4-2 cells (Alamar Blue, 4 days) [2]
PSMA ADC (AB-PG1-XG1-006 conjugated to maleimidocaproyl-valine-citrulline-p-aminobenzylcarbamate-monomethyl auristatin E), Example 1 (antibody, V domains shown, vcMMAE on cysteine thiols of reduced disulfides; 3.0-3.5 drugs per mAb in total) VH: QVQLVESGGGVVQPGRSLRLSCAASGFAFSRYGMHWVRQAPGKGLEWVAVIWYDGSNKYYADSVKGRFTISRDNSKNTQYLQMNSLRAEDTAVYYCARGGDFLYYYYYGMDVWGQGTTVTVSS VL: DIQMTQSPSSLSASVGDRVTITCRASQGISNYLAWYQQKTGKVPKFLIYEASTLQSGVPSRFSGGGSGTDFTLTISSLQPEDVATYYCQNYNSAPFTFGPGTKVDIK	208 pM	65 pM	83 pM	–
PSMA mAb mcMMAF (conjugate 699028C), Example 2 (antibody, V domains shown, mcMMAF via thioether on interchain cysteine thiols; 4.4 drugs per mAb in total) VH: QVQLVESGGGVVQPGRSLRLSCAASGFAFSRYGMHWVRQAPGKGLEWVAVIWYDGSNKYYADSVKGRFTISRDNSKNTQYLQMNSLRAEDTAVYYCARGGDFLYYYYYGMDVWGQGTTVTVSS VL: DIQMTQSPSSLSASVGDRVTITCRASQGISNYLAWYQQKTGKVPKFLIYEASTLQSGVPSRFSGGGSGTDFTLTISSLQPEDVATYYCQNYNSAPFTFGPGTKVDIK	–	–	–	42 pM
PSMA mAb vcMMAF (conjugate 699028B), Example 2 (antibody, V domains shown, vcMMAF via thioether on interchain cysteine thiols; 4.4 drugs per mAb in total) VH: QVQLVESGGGVVQPGRSLRLSCAASGFAFSRYGMHWVRQAPGKGLEWVAVIWYDGSNKYYADSVKGRFTISRDNSKNTQYLQMNSLRAEDTAVYYCARGGDFLYYYYYGMDVWGQGTTVTVSS VL: DIQMTQSPSSLSASVGDRVTITCRASQGISNYLAWYQQKTGKVPKFLIYEASTLQSGVPSRFSGGGSGTDFTLTISSLQPEDVATYYCQNYNSAPFTFGPGTKVDIK	–	–	–	11 pM
PSMA mAb vcMMAE (conjugate 699028A), Example 2 (antibody, V domains shown, vcMMAE via thioether on interchain cysteine thiols; 4.3 drugs per mAb in total) VH: QVQLVESGGGVVQPGRSLRLSCAASGFAFSRYGMHWVRQAPGKGLEWVAVIWYDGSNKYYADSVKGRFTISRDNSKNTQYLQMNSLRAEDTAVYYCARGGDFLYYYYYGMDVWGQGTTVTVSS VL: DIQMTQSPSSLSASVGDRVTITCRASQGISNYLAWYQQKTGKVPKFLIYEASTLQSGVPSRFSGGGSGTDFTLTISSLQPEDVATYYCQNYNSAPFTFGPGTKVDIK	–	–	–	60 pM
